{"source": "paper PMC10632456", "about": "“Cryo-EM structures of human magnesium channel MRS2 reveal gating and regulatory mechanisms” (Nature Communications, 2023)", "molecular_target": "the molecule itself", "test": "cryo-EM structure; purified MRS2 at about 0.5 mg/ml in 20 mM HEPES, 150 mM NaCl, 40 mM MgCl2, 0.003% LMNG, pH 7.3; C5 and C1 reconstructions"}
{"protein": "human MRS2 (Mitochondrial RNA Splicing 2 magnesium channel) (natural protein, UniProt Q9HD23 71-443, looked up, MRS2, human, UniProt Q9HD23; The full-length precursor was expressed; No step that removes the tag is described; also called HsMRS2; MRS2-Mg2+) TSDVSQATLASVAPVFTVTKFDKQGNVTSFERKKTELYQELGLQARDLRFQHVMSITVRNNRIIMRMEYLKAVITPECLLILDYRNLNLEQWLFRELPSQLSGEGQLVTYPLPFEFRAIEALLQYWINTLQGKLSILQPLILETLDALVDPKHSSVDRSKLHILLQNGKSLSELETDIKIFKESILEILDEEELLEELCVSKWSDPQVFEKSSAGIDHAEEMELLLENYYRLADDLSNAARELRVLIDDSQSIIFINLDSHRNVMMRLNLQLTMGTFSLSLFGLMGVAFGMNLESSLEEDHRIFWLITGIMFMGSGLIWRRLLSFLGRQLEAPLPPMMASLPKKTLLADRSMELKNSLRLDGLGSGRSILTNR", "values": [{"measurement": "stoichiometry N", "result": 5}]}
